Measured values: PMC9482650, “Quantitative fragmentomics allow affinity mapping of interactomes” (Nature Communications, 2022)

T1: RHPN1, Q8TCX5
T1 sequence (Q8TCX5 508-602, limits assumed, looked up): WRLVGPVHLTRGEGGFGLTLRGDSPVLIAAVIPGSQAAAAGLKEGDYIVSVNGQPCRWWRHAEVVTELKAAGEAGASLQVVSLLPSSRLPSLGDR

T2: NHERF3_4, Q5T2W1
T2 sequence (Q5T2W1 373-468, limits assumed, looked up): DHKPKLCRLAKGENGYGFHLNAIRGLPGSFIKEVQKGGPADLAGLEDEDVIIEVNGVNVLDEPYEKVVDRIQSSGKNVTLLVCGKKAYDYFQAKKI

T3: GRIP1_7, Q9Y3R0
T3 sequence (Q9Y3R0 999-1096, limits assumed, looked up): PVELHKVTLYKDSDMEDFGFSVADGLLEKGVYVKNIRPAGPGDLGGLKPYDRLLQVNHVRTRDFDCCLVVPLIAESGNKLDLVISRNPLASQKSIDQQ

T4: MPDZ_5, O75970
T4 sequence (O75970 695-796, limits assumed, looked up): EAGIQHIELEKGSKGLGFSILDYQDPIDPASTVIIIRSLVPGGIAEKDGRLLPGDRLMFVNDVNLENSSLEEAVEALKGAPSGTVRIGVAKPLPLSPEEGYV

T5: MPP7, Q5T2T1
T5 sequence (Q5T2T1 134-230, limits assumed, looked up): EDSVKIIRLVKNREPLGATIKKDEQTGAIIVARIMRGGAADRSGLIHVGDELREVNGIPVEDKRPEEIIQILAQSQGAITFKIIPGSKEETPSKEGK

T6: TX1BP3, O14907
T6 sequence (O14907 10-122, limits assumed, looked up): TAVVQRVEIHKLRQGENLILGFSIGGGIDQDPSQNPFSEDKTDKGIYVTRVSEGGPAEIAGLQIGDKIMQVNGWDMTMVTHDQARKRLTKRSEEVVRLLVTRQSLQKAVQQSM

T7: PCLO, Q9Y6V0
T7 sequence (Q9Y6V0 4491-4600, limits assumed, looked up): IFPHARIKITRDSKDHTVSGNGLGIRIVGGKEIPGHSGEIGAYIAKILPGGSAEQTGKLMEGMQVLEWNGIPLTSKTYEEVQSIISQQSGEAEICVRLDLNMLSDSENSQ

T8: LRRC7, Q96NW7
T8 sequence (Q96NW7 1440-1537, limits assumed, looked up): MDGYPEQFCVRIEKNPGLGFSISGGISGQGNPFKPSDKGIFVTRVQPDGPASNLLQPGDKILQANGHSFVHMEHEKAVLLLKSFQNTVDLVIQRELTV

T9: GRIP1_3, Q9Y3R0
T9 sequence (Q9Y3R0 247-346, limits assumed, looked up): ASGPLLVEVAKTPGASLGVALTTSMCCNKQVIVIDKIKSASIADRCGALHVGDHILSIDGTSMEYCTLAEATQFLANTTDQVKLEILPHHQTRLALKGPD

T10: SYNJ2BP, P57105
T10 sequence (P57105 8-110, limits assumed, looked up): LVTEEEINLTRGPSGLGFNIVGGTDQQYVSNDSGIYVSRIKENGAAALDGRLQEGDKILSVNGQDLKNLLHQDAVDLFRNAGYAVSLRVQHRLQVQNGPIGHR

T11: NHERF3_3, Q5T2W1
T11 sequence (Q5T2W1 238-333, limits assumed, looked up): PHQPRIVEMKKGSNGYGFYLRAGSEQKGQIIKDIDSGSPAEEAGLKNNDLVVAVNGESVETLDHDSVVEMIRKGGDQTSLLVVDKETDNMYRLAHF

T12: SNTA1, Q13424
T12 sequence (Q13424 82-180, limits assumed, looked up): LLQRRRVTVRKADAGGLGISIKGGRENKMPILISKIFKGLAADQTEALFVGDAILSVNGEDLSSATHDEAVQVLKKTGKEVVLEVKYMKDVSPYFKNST


Molecular target: T1, RHPN1, Q8TCX5
Experiment: holdup assay
Design: key: below the threshold = too weak to quantify, mostly under pKd 3.1 to 4
Conditions: plain residues with an end cap or a label only (N-terminal biotin on a linker: ado-ado)

Binder	pKd
QGLAERISVL [PRKD2, Q9BZL6]	4.62
LPHPHSTTRV [NLGN2, Q8NFZ4]	3.83
PRISRSQSEL [CCDC134, Q9H6E4]	below the threshold

Molecular target: MAGI2_3, Q86UL8
Sequence (Q86UL8 600-682): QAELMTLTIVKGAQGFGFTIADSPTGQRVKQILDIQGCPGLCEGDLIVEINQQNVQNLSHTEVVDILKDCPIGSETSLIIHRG
Experiment: holdup assay
Design: key: below the threshold = too weak to quantify, mostly under pKd 3.1 to 4
Conditions: plain residues with an end cap or a label only (N-terminal biotin on a linker: ado-ado)

Binder	pKd
QGLAERISVL [PRKD2, Q9BZL6]	below the threshold
LPHPHSTTRV [NLGN2, Q8NFZ4]	4.24
PRISRSQSEL [CCDC134, Q9H6E4]	below the threshold

Molecular target: PDZRN4_1, Q6ZMN7
Sequence (Q6ZMN7 213-318): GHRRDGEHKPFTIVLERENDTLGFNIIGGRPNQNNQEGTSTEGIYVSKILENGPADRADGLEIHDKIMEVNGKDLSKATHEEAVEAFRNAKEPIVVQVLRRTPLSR
Experiment: holdup assay
Design: key: below the threshold = too weak to quantify, mostly under pKd 3.1 to 4
Conditions: plain residues with an end cap or a label only (N-terminal biotin on a linker: ado-ado)

Binder	pKd
QGLAERISVL [PRKD2, Q9BZL6]	3.66
LPHPHSTTRV [NLGN2, Q8NFZ4]	below the threshold
PRISRSQSEL [CCDC134, Q9H6E4]	below the threshold

Molecular target: T2, NHERF3_4, Q5T2W1
Experiment: holdup assay
Design: key: below the threshold = too weak to quantify, mostly under pKd 3.1 to 4
Conditions: plain residues with an end cap or a label only (N-terminal biotin on a linker: ado-ado)

Binder	pKd
QGLAERISVL [PRKD2, Q9BZL6]	3.73
LPHPHSTTRV [NLGN2, Q8NFZ4]	below the threshold
PRISRSQSEL [CCDC134, Q9H6E4]	below the threshold

Molecular target: DLG2_2, Q15700
Experiment: holdup assay
Design: key: below the threshold = too weak to quantify, mostly under pKd 3.1 to 4
Conditions: plain residues with an end cap or a label only (N-terminal biotin on a linker: ado-ado)

Binder	pKd
QGLAERISVL [PRKD2, Q9BZL6]	below the threshold
LPHPHSTTRV [NLGN2, Q8NFZ4]	3.59
PRISRSQSEL [CCDC134, Q9H6E4]	below the threshold

Molecular target: T3, GRIP1_7, Q9Y3R0
Experiment: holdup assay
Design: key: below the threshold = too weak to quantify, mostly under pKd 3.1 to 4
Conditions: plain residues with an end cap or a label only (N-terminal biotin on a linker: ado-ado)

Binder	pKd
QGLAERISVL [PRKD2, Q9BZL6]	below the threshold
LPHPHSTTRV [NLGN2, Q8NFZ4]	below the threshold
PRISRSQSEL [CCDC134, Q9H6E4]	below the threshold

Molecular target: T4, MPDZ_5, O75970
Experiment: holdup assay
Design: key: below the threshold = too weak to quantify, mostly under pKd 3.1 to 4
Conditions: plain residues with an end cap or a label only (N-terminal biotin on a linker: ado-ado)

Binder	pKd
QGLAERISVL [PRKD2, Q9BZL6]	below the threshold
LPHPHSTTRV [NLGN2, Q8NFZ4]	below the threshold
PRISRSQSEL [CCDC134, Q9H6E4]	below the threshold

Molecular target: DLG5_1, Q8TDM6
Sequence (Q8TDM6 617-713): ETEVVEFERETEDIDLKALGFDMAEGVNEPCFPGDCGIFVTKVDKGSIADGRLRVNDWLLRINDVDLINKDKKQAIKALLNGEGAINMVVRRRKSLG
Experiment: holdup assay
Design: key: below the threshold = too weak to quantify, mostly under pKd 3.1 to 4
Conditions: plain residues with an end cap or a label only (N-terminal biotin on a linker: ado-ado)

Binder	pKd
QGLAERISVL [PRKD2, Q9BZL6]	below the threshold
LPHPHSTTRV [NLGN2, Q8NFZ4]	below the threshold
PRISRSQSEL [CCDC134, Q9H6E4]	below the threshold

Molecular target: Inadl_5, Q8NI35
Sequence (Q8NI35 673-780): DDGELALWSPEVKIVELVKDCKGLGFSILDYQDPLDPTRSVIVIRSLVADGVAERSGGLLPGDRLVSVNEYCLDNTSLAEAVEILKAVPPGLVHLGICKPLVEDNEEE
Experiment: holdup assay
Design: key: below the threshold = too weak to quantify, mostly under pKd 3.1 to 4
Conditions: plain residues with an end cap or a label only (N-terminal biotin on a linker: ado-ado)

Binder	pKd
QGLAERISVL [PRKD2, Q9BZL6]	below the threshold
LPHPHSTTRV [NLGN2, Q8NFZ4]	below the threshold
PRISRSQSEL [CCDC134, Q9H6E4]	below the threshold

Molecular target: LIMK2, P53671
Sequence (P53671 143-248): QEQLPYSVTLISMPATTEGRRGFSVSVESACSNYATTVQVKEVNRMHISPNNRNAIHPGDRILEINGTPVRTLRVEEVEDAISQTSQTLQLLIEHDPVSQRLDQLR
Experiment: holdup assay
Design: key: below the threshold = too weak to quantify, mostly under pKd 3.1 to 4
Conditions: plain residues with an end cap or a label only (N-terminal biotin on a linker: ado-ado)

Binder	pKd
QGLAERISVL [PRKD2, Q9BZL6]	below the threshold
LPHPHSTTRV [NLGN2, Q8NFZ4]	below the threshold
PRISRSQSEL [CCDC134, Q9H6E4]	below the threshold

Molecular target: MAST1, Q9Y2H9
Sequence (Q9Y2H9 962-1065): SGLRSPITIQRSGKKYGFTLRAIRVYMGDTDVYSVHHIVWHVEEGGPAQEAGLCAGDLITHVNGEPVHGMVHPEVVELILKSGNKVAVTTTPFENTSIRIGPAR
Experiment: holdup assay
Design: key: below the threshold = too weak to quantify, mostly under pKd 3.1 to 4
Conditions: plain residues with an end cap or a label only (N-terminal biotin on a linker: ado-ado)

Binder	pKd
QGLAERISVL [PRKD2, Q9BZL6]	4.52
LPHPHSTTRV [NLGN2, Q8NFZ4]	4.64
PRISRSQSEL [CCDC134, Q9H6E4]	4.74

Molecular target: MAGI2_4, Q86UL8
Sequence (Q86UL8 772-865): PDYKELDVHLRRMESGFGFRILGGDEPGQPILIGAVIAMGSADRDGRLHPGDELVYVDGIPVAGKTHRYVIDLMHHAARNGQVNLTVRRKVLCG
Experiment: holdup assay
Design: key: below the threshold = too weak to quantify, mostly under pKd 3.1 to 4
Conditions: plain residues with an end cap or a label only (N-terminal biotin on a linker: ado-ado)

Binder	pKd
QGLAERISVL [PRKD2, Q9BZL6]	below the threshold
LPHPHSTTRV [NLGN2, Q8NFZ4]	3.72
PRISRSQSEL [CCDC134, Q9H6E4]	below the threshold

Molecular target: GRID2IP_2, A4D2P6
Sequence (A4D2P6 272-370): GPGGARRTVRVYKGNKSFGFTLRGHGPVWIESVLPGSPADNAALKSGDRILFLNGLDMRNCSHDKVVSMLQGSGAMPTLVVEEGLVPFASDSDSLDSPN
Experiment: holdup assay
Design: key: below the threshold = too weak to quantify, mostly under pKd 3.1 to 4
Conditions: plain residues with an end cap or a label only (N-terminal biotin on a linker: ado-ado)

Binder	pKd
QGLAERISVL [PRKD2, Q9BZL6]	4.81
LPHPHSTTRV [NLGN2, Q8NFZ4]	3.63
PRISRSQSEL [CCDC134, Q9H6E4]	3.61

Molecular target: DLG1_2, Q12959
Sequence (Q12959 314-412): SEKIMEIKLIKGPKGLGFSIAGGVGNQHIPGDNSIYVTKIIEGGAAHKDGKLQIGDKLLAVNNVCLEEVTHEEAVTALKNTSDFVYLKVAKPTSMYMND
Experiment: holdup assay
Design: key: below the threshold = too weak to quantify, mostly under pKd 3.1 to 4
Conditions: plain residues with an end cap or a label only (N-terminal biotin on a linker: ado-ado)

Binder	pKd
QGLAERISVL [PRKD2, Q9BZL6]	3.67
LPHPHSTTRV [NLGN2, Q8NFZ4]	4.07
PRISRSQSEL [CCDC134, Q9H6E4]	below the threshold

Molecular target: T5, MPP7, Q5T2T1
Experiment: holdup assay
Design: key: below the threshold = too weak to quantify, mostly under pKd 3.1 to 4
Conditions: plain residues with an end cap or a label only (N-terminal biotin on a linker: ado-ado)

Binder	pKd
QGLAERISVL [PRKD2, Q9BZL6]	below the threshold
LPHPHSTTRV [NLGN2, Q8NFZ4]	below the threshold
PRISRSQSEL [CCDC134, Q9H6E4]	below the threshold

Molecular target: T6, TX1BP3, O14907
Experiment: holdup assay
Design: key: below the threshold = too weak to quantify, mostly under pKd 3.1 to 4
Conditions: plain residues with an end cap or a label only (N-terminal biotin on a linker: ado-ado)

Binder	pKd
QGLAERISVL [PRKD2, Q9BZL6]	4.38
LPHPHSTTRV [NLGN2, Q8NFZ4]	3.79
PRISRSQSEL [CCDC134, Q9H6E4]	3.52

Molecular target: T7, PCLO, Q9Y6V0
Experiment: holdup assay
Design: key: below the threshold = too weak to quantify, mostly under pKd 3.1 to 4
Conditions: plain residues with an end cap or a label only (N-terminal biotin on a linker: ado-ado)

Binder	pKd
QGLAERISVL [PRKD2, Q9BZL6]	below the threshold
LPHPHSTTRV [NLGN2, Q8NFZ4]	below the threshold
PRISRSQSEL [CCDC134, Q9H6E4]	below the threshold

Molecular target: HTRA1, Q92743
Sequence (Q92743 360-477): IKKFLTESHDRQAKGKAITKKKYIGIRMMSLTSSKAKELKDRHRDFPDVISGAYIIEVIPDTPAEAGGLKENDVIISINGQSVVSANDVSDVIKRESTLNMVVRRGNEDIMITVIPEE
Experiment: holdup assay
Design: key: below the threshold = too weak to quantify, mostly under pKd 3.1 to 4
Conditions: plain residues with an end cap or a label only (N-terminal biotin on a linker: ado-ado)

Binder	pKd
QGLAERISVL [PRKD2, Q9BZL6]	4.77
LPHPHSTTRV [NLGN2, Q8NFZ4]	3.6
PRISRSQSEL [CCDC134, Q9H6E4]	below the threshold

Molecular target: T8, LRRC7, Q96NW7
Experiment: holdup assay
Design: key: below the threshold = too weak to quantify, mostly under pKd 3.1 to 4
Conditions: plain residues with an end cap or a label only (N-terminal biotin on a linker: ado-ado)

Binder	pKd
QGLAERISVL [PRKD2, Q9BZL6]	below the threshold
LPHPHSTTRV [NLGN2, Q8NFZ4]	below the threshold
PRISRSQSEL [CCDC134, Q9H6E4]	below the threshold

Molecular target: DLG2_3, Q15700
Experiment: holdup assay
Design: key: below the threshold = too weak to quantify, mostly under pKd 3.1 to 4
Conditions: plain residues with an end cap or a label only (N-terminal biotin on a linker: ado-ado)

Binder	pKd
QGLAERISVL [PRKD2, Q9BZL6]	below the threshold
LPHPHSTTRV [NLGN2, Q8NFZ4]	4.42
PRISRSQSEL [CCDC134, Q9H6E4]	3.63

Molecular target: T9, GRIP1_3, Q9Y3R0
Experiment: holdup assay
Design: key: below the threshold = too weak to quantify, mostly under pKd 3.1 to 4
Conditions: plain residues with an end cap or a label only (N-terminal biotin on a linker: ado-ado)

Binder	pKd
QGLAERISVL [PRKD2, Q9BZL6]	below the threshold
LPHPHSTTRV [NLGN2, Q8NFZ4]	below the threshold
PRISRSQSEL [CCDC134, Q9H6E4]	below the threshold

Molecular target: T10, SYNJ2BP, P57105
Experiment: holdup assay
Design: key: below the threshold = too weak to quantify, mostly under pKd 3.1 to 4
Conditions: plain residues with an end cap or a label only (N-terminal biotin on a linker: ado-ado)

Binder	pKd
QGLAERISVL [PRKD2, Q9BZL6]	below the threshold
LPHPHSTTRV [NLGN2, Q8NFZ4]	3.84
PRISRSQSEL [CCDC134, Q9H6E4]	4.09

Molecular target: T11, NHERF3_3, Q5T2W1
Experiment: holdup assay
Design: key: below the threshold = too weak to quantify, mostly under pKd 3.1 to 4
Conditions: plain residues with an end cap or a label only (N-terminal biotin on a linker: ado-ado)

Binder	pKd
QGLAERISVL [PRKD2, Q9BZL6]	below the threshold
LPHPHSTTRV [NLGN2, Q8NFZ4]	below the threshold
PRISRSQSEL [CCDC134, Q9H6E4]	below the threshold

Molecular target: T12, SNTA1, Q13424
Experiment: holdup assay
Design: key: below the threshold = too weak to quantify, mostly under pKd 3.1 to 4
Conditions: plain residues with an end cap or a label only (N-terminal biotin on a linker: ado-ado)

Binder	pKd
QGLAERISVL [PRKD2, Q9BZL6]	4.71
LPHPHSTTRV [NLGN2, Q8NFZ4]	4.18
PRISRSQSEL [CCDC134, Q9H6E4]	below the threshold

Molecular target: GRIP2_7, Q9C0E4
Sequence (Q9C0E4 934-1023): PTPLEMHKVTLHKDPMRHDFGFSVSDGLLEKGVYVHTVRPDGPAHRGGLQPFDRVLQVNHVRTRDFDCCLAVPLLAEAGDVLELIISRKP
Experiment: holdup assay
Design: key: below the threshold = too weak to quantify, mostly under pKd 3.1 to 4
Conditions: plain residues with an end cap or a label only (N-terminal biotin on a linker: ado-ado)

Binder	pKd
QGLAERISVL [PRKD2, Q9BZL6]	below the threshold
LPHPHSTTRV [NLGN2, Q8NFZ4]	below the threshold
PRISRSQSEL [CCDC134, Q9H6E4]	below the threshold
